In patent US5208158A, “Oxidation stable detergent enzymes” (Novo Nordisk A/S, priority 1990, dated 1993):

T1: Subtilisin-309 variant Subtilisin-309-M222C (Lederbergia lenta, UniProt P29600, M216C)
T1 construct: made in house
T1 sequence (P29600 1-269 M216C): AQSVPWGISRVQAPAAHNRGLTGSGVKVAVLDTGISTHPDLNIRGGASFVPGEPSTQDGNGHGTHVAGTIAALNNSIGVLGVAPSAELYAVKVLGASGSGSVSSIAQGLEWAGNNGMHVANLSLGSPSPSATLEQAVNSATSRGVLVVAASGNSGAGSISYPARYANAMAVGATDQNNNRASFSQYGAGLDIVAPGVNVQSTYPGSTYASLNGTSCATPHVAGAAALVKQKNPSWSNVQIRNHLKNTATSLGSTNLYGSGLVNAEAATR

T2: Subtilisin-309 variant Subtilisin-309-M222C-SM (M222C chemically modified with MMTS) (Lederbergia lenta, UniProt P29600, M216C)
T2 construct: made in house
T2 sequence (P29600 1-269 M216C): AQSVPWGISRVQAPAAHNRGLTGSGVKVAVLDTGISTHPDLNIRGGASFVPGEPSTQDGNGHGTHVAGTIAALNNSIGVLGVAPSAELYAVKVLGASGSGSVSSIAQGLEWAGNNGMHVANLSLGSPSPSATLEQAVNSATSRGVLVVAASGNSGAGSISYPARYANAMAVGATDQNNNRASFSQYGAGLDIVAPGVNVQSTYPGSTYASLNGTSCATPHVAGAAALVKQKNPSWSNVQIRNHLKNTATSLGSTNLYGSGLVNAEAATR


Legend:
Format in all cases: biochemical
[1] = molecular target: T1, Subtilisin-309 variant Subtilisin-309-M222C; assay: Titration of the enzyme with phenyl-Hg-Cl; conditions: ratio phenyl-Hg-Cl/enzyme exceeds 1
Source text: (§1) As a further control, the enzyme was titrated with phenyl-Hg-Cl. When subtilisin-309-M222C is modified with phenyl-Hg-Cl, the activity decreases. When the ratio phenyl-Hg-Cl/WT exceeds 1, the activity constantly remains 10% of the activity of the non-modified enzyme, corresponding to 1 group per enzyme being modified.

[2] = molecular target: T2, Subtilisin-309 variant Subtilisin-309-M222C-SM (M222C chemically modified with MMTS); assay: Titration of the enzyme with phenyl-Hg-Cl; conditions: excess of phenyl-Hg-Cl relative to enzyme of 2.5
Source text: as §1

[3] = substrate: C[C@H](NC(=O)CCC(=O)O)C(=O)N[C@@H](C)C(=O)N1CCC[C@H]1C(=O)N[C@@H](Cc1ccccc1)C(=O)Nc1ccc([N+](=O)[O-])cc1; assay: Kinetic characterization, cleavage of Suc-Ala-Ala-Pro-Phe-pNA monitored at 410 nm; conditions: other: 50 mM Bicine, 2 mM CaCl2, 0.1 M KCl, pH 8.5, 25° C., substrate 0.2 to 6.5 mM
Description: The proteolytic activity can be monitored spectrophotometrically at 25° C., following the degradation of the peptide substrates Suc-Ala-Ala-Pro-Phe-pNA (Suc=Succinyl and pNA=p-nitro-anilid) or DMC (dimethyl-casein), and subsequent calculation of the kinetic parameters kcat. and KM.
For kinetic characterization, the savinase enzymes were assayed in:
50 μl X mM Suc-Ala-Ala-Pro-Phe-pNA in DMF
wherein the cleavage of substrate between Phe and pNA (p-nitro-anilid) is monitored spectrophotometrically at 410 nm, Δε=8500M^-1 cm^-1. The enzymatic concentrations are determined from the absorption at 280 nm, using Δε28 determined from the amino acid composition, Δε280 =23217M^-1 cm^-1.
The kinetic parameters kcat and KM are determined from a direct fit of the initial velocities at 7 concentrations of substrate to the Michaelis Menten equation. The […], X, is varied from 4 to 131 mM, so that the concentration of the substrate in assay varies from 0.2 to 6.5 mM. Thus selected around the KM value of the enzymes.

Row | Molecule | activity remaining, of the activity of the non-modified enzyme [1] [%] | activity change on reaction with phenyl-Hg-Cl [2] | Km [3] [µM] | kcat [3] [s⁻¹] | kcat/Km [3] [S^-1 mM^-1]
1 | [Cl][Hg][c]1ccccc1 [phenyl-Hg-Cl] | 10 | no activity change is observed |  |  | 
2 | Subtilisin-309 (wild type) (Lederbergia lenta) (protein) AQSVPWGISRVQAPAAHNRGLTGSGVKVAVLDTGISTHPDLNIRGGASFVPGEPSTQDGNGHGTHVAGTIAALNNSIGVLGVAPSAELYAVKVLGASGSGSVSSIAQGLEWAGNNGMHVANLSLGSPSPSATLEQAVNSATSRGVLVVAASGNSGAGSISYPARYANAMAVGATDQNNNRASFSQYGAGLDIVAPGVNVQSTYPGSTYASLNGTSMATPHVAGAAALVKQKNPSWSNVQIRNHLKNTATSLGSTNLYGSGLVNAEAATR |  |  | 1760 | 91.2 ± 1.0 | 52
3 | Subtilisin-309 variant Subtilisin-309-M222C (Lederbergia lenta; M216C) (protein, made in house) AQSVPWGISRVQAPAAHNRGLTGSGVKVAVLDTGISTHPDLNIRGGASFVPGEPSTQDGNGHGTHVAGTIAALNNSIGVLGVAPSAELYAVKVLGASGSGSVSSIAQGLEWAGNNGMHVANLSLGSPSPSATLEQAVNSATSRGVLVVAASGNSGAGSISYPARYANAMAVGATDQNNNRASFSQYGAGLDIVAPGVNVQSTYPGSTYASLNGTSCATPHVAGAAALVKQKNPSWSNVQIRNHLKNTATSLGSTNLYGSGLVNAEAATR |  |  | 1820 | 43.2 ± 0.03 | 23.8
